{
  "source": "patent EP1897948A1",
  "about": "(ZymoGenetics, Inc., dated 2008)",
  "target": "the molecule itself",
  "assay": "western blot of BHK media, reducing (29 kDa) against non-reducing (49 kDa)",
  "data": [
    {"protein": "Human Ztgfβ-9 protein (ligand, Expressed in BHK cells without a tag and secreted into the medium; also called transforming growth factor beta-9) AGAPRAGRRPARPRGCADRPEELLEQLYGRLAAGVLSAFHHTLQLGPREQARNASCPAGGRPADRRFRPPTNLRSVSPWAYRISYDPARYPRYLPEAYCLCRGCLTGLFGEEDVRFRSAPVYMPTVVLRRTPACAGGRSVYTEAYVTIPVGCTCVPEPEKDADSINSSIDKQGAKLLLGPNDAPAGP", "values": [
      {"measurement": "binding result", "value": "binds"}
    ]}
  ]
}
